Experimental data from paper PMC11141937 (2024).

Columns and labels:
[1] = molecular target: T1, SARS-CoV-2 WT (WH01) S protein ectodomain (SARS-CoV-2, UniProt P0DTC2 14-1213); assay: BLI
[2] = molecular target: SARS-CoV-2 WT (WH01) S protein on S-293T cells (SARS-CoV-2, UniProt P0DTC2); assay: FACS
WT NTD = assay: ELISA
WT S2 = assay: ELISA
[3] = molecular target: RBD of SARS-CoV-2 WT S protein (SARS-CoV-2, UniProt P0DTC2); assay: ELISA
[4] = molecular target: T1, SARS-CoV-2 WT (WH01) S protein …; assay: ELISA
[5] = molecular target: S1 of SARS-CoV-2 WT S protein (SARS-CoV-2); assay: ELISA

B1: O5C2 mAb (antibody, V domains shown)
VH: EVQLVESGGGLIQPGGSLRLSCAASGIIVSRNYMSWVRQAPGKGLEWVSILYAGGSSFYAEPVQGRFTVSRDNSKNTLFLEMNSLRVEDTAVYYCARDLQWGIDIWGQGAMVTVSS
VL: DIQMTQTPPSLSASVGDRVSISCRASQSTGSWLAWYQQKPGKAPKLLIYKTSSLESGVPSRFSGSGSGTEFTLTISSLQPDDVATYYCQHYDTYSSTFGQGTKVEIK
Question: How did the Kd [1] turn out when B1 was run?
Answer: Its Kd is 0.865 nM.

Question: What about the EC50 [2] of the same binder?
Answer: Its EC50 is 0.177 nM.

Question: And the EC50 (WT NTD)?
Answer: Its EC50 is over 1000 nM.

Question: And the EC50 (WT S2)?
Answer: Its EC50 is over 1000 nM.

Question: What about the EC50 [3] of the same binder?
Answer: Its EC50 is 0.018 nM.

Question: And the EC50 [4]?
Answer: Its EC50 is 0.024 nM.

Question: What about the EC50 [5] of the same binder?
Answer: The EC50 was 0.017 nM.
